From US20040018971A1 (published 2004)

Tests used:
HLA-A*0201 [1] = target: T1, HLA-A*0201 (human); assay: competitive inhibition of 125I-labeled probe peptide binding to purified HLA-A*0201
T1 construct: also called HLA-A2.1; A2.1

HLA-A*0201 [2] = target: T2, HLA-A*0201 (human); assay: inhibition of 125I-labelled standard peptide binding to purified HLA, gel filtration; ratio = IC50 of standard / IC50 of test peptide
T2 construct: also called HLA-A2.1

B1: Her2/neu.144 (peptide)
peptide: SLTEILKGGV
In the case of B1, the IC50 (HLA-A*0201 [1]) is reported as no more than 500 nM.

B2: HER2/neu peptide, position 442, 9 amino acids (peptide)
peptide: SLTLQGLGI
In the case of B2, the relative binding ratio (HLA-A*0201 [2]) is reported as 0.0003 ratio to standard peptide.

B3: HER2/neu peptide, position 144, 10 amino acids (peptide)
peptide: SLTEILKGGV
notes: also called Her2/neu.144
In the case of B3, the relative binding ratio (HLA-A*0201 [2]) is reported as 0.015 ratio to standard peptide.
